Test results reported in the Human Domainome abundance scans (Beltran et al. 2025).
± gives the uncertainty stated by the source.

B1: POU domain, class 3, transcription factor 2, residues 356 to 411; numbered along this chain, P20265 (parent)
chain: KKRTSIEVSVKGALESHFLKCPKPSAQEITSLADSLQLEKEVVRVWFCNRRQKEKR
B2: GA-binding protein alpha chain, residues 172 to 250; numbered along this chain, Q06546 (parent)
chain: GYRKEQERLGIPYDPIQWSTDQVLHWVVWVMKEFSMTDIDLTTLNISGRELCSLNQEDFFQRVPRGEILWSHLELLRKY

Variants of: B1
Experiment: abundance fitness (aPCA) (normalised: wild type 0, dead -1); higher = more abundant; growth selection in yeast, the domain comes from the species named
Settings: Homo sapiens

| Variant | abundance fitness |
| --- | --- |
| K1G | -0.214 ± 0.13 |
| R3V | 0.051 ± 0.091 |
| K1M | -0.244 ± 0.24 |
| A26K | -0.162 ± 0.15 |
| Q52F | -0.106 ± 0.11 |
| V10C | -0.294 ± 0.14 |
| T30F | -0.396 ± 0.15 |
| I29C | -0.633 ± 0.14 |
| K53M | 0.11 ± 0.29 |
| K11F | -0.139 ± 0.2 |
| Q37D | -0.192 ± 0.14 |
| K53H | -0.204 ± 0.49 |
| P24G | -0.691 ± 0.11 |
| L19N | -0.075 ± 0.15 |
| V8R | 0.049 ± 0.094 |
| K55I | -0.036 ± 0.13 |
| P24F | -0.999 ± 0.29 |
| R56Q | -0.119 ± 0.29 |
| I29H | -0.817 ± 0.26 |
| K40F | -0.004 ± 0.13 |
| F18G | -0.976 ± 0.1 |
| E7H | 0.028 ± 0.069 |
| V43S | -0.985 ± 0.14 |
| G12C | 0.039 ± 0.098 |

| Variant | abundance fitness |
| --- | --- |
| C21R | -0.419 ± 0.077 |
| K20L | -0.322 ± 0.082 |
| Q27D | -0.08 ± 0.13 |
| I29W | -0.855 ± 0.16 |
| P22H | -0.189 ± 0.17 |
| Q37F | -0.183 ± 0.12 |
| R51V | -0.245 ± 0.073 |
| I6E | -0.091 ± 0.15 |
| A13G | -0.379 ± 0.088 |
| L19P | -0.911 ± 0.17 |
| V8S | 0.096 ± 0.079 |
| F18H | -0.938 ± 0.27 |
| V10W | -0.19 ± 0.1 |
| I6S | -0.053 ± 0.12 |
| S9G | 0.046 ± 0.074 |
| K53V | -0.517 ± 0.35 |
| V42T | -0.02 ± 0.12 |
| G12A | 0.124 ± 0.093 |
| K23C | 0.023 ± 0.13 |
| K40R | 0.017 ± 0.066 |
| W46N | -0.896 ± 0.3 |
| E41T | -0.303 ± 0.13 |
| S9M | -0.025 ± 0.14 |
| R56E | -0.031 ± 0.21 |

| Variant | abundance fitness |
| --- | --- |
| L32S | -0.875 ± 0.12 |
| R3S | 0.023 ± 0.1 |
| R44C | -0.495 ± 0.1 |
| W46C | -0.826 ± 0.35 |
| E7L | -0.177 ± 0.057 |
| F47P | -0.941 ± 0.24 |
| V8F | 0.065 ± 0.18 |
| F47Y | -0.328 ± 0.14 |
| D34K | 0.191 ± 0.14 |
| V43C | -0.547 ± 0.15 |
| E54P | -0.861 ± 0.19 |
| R44N | -0.152 ± 0.11 |
| D34G | -0.1 ± 0.08 |
| T30Q | 0.078 ± 0.14 |
| S16E | -0.015 ± 0.1 |
| I29N | -1.05 ± 0.25 |
| C48A | -0.096 ± 0.1 |
| Q52V | -0.131 ± 0.094 |
| I6W | -0.289 ± 0.11 |
| C21L | -0.651 ± 0.094 |
| E54R | -0.472 ± 0.085 |
| G12R | -0.045 ± 0.084 |
| G12Q | -0.053 ± 0.13 |
| D34W | 0.153 ± 0.083 |

| Variant | abundance fitness |
| --- | --- |
| D34T | 0.055 ± 0.099 |
| I6T | -0.111 ± 0.16 |
| S5H | 0.095 ± 0.17 |
| F47N | -0.967 ± 0.38 |
| F18E | -0.979 ± 0.21 |
| V8G | 0.091 ± 0.075 |
| S16P | -0.539 ± 0.14 |
| S16D | -0.193 ± 0.15 |
| T4I | 0.053 ± 0.15 |
| A33S | -0.236 ± 0.087 |
| A13D | -0.356 ± 0.12 |
| S35P | -0.961 ± 0.14 |
| K2V | -0.119 ± 0.12 |
| S9I | -0.197 ± 0.17 |
| Q37R | -0.138 ± 0.074 |
| S5I | 0.118 ± 0.16 |
| K23E | 0.072 ± 0.099 |
| G12D | -0.027 ± 0.093 |
| T4V | -0.095 ± 0.087 |
| S9R | 0.108 ± 0.1 |
| F47M | -0.43 ± 0.12 |
| K20F | -0.175 ± 0.15 |
| R51T | -0.447 ± 0.12 |
| V45L | -0.033 ± 0.084 |

| Variant | abundance fitness |
| --- | --- |
| L36V | -0.53 ± 0.072 |
| P24E | -0.846 ± 0.21 |
| D34V | -0.04 ± 0.081 |
| T4S | -0.029 ± 0.081 |
| T30E | 0.022 ± 0.11 |
| S9W | 0.004 ± 0.11 |
| V10G | -0.318 ± 0.077 |
| K55Q | -0.244 ± 0.2 |
| R44I | -0.272 ± 0.11 |
| V42N | -0.309 ± 0.19 |
| S5Y | -0.183 ± 0.17 |
| Q27I | -0.14 ± 0.14 |
| L36R | -0.938 ± 0.11 |
| E15P | -1.04 ± 0.22 |
| T4N | -0.032 ± 0.16 |
| K1Y | -0.382 ± 0.44 |
| V42F | -0.042 ± 0.15 |
| V8D | -0.064 ± 0.14 |
| Q52M | -0.053 ± 0.12 |
| R56T | 0.063 ± 0.26 |
| E39T | -0.159 ± 0.12 |
| S25A | -0.322 ± 0.1 |
| K55P | -0.396 ± 0.16 |
| A13K | 0.081 ± 0.15 |

| Variant | abundance fitness |
| --- | --- |
| K11N | -0.143 ± 0.15 |
| L32H | -0.857 ± 0.19 |
| S5P | 0.007 ± 0.11 |
| K2P | -0.525 ± 0.24 |
| L38V | -0.119 ± 0.074 |
| V43H | -0.938 ± 0.2 |
| K2A | -0.154 ± 0.15 |
| S25T | 0.038 ± 0.12 |
| H17G | -0.712 ± 0.1 |
| S35M | -0.095 ± 0.12 |
| R3F | -0.021 ± 0.13 |
| Q52H | -0.002 ± 0.15 |
| L14A | -1.04 ± 0.22 |
| K20S | -0.248 ± 0.095 |
| I6A | -0.069 ± 0.14 |
| H17R | -0.556 ± 0.085 |
| V8N | 0.212 ± 0.19 |
| L38T | -0.26 ± 0.096 |
| R51W | -0.1 ± 0.11 |
| A13N | -0.211 ± 0.16 |
| T4K | -0.267 ± 0.14 |
| S16C | -0.226 ± 0.12 |
| A26V | -0.049 ± 0.068 |

Variants of: B2
Experiment: as above
Settings: Homo sapiens

| Variant | abundance fitness |
| --- | --- |
| G1A | -0.1 ± 0.061 |
| G1E | -0.164 ± 0.057 |
| G1L | -0.634 ± 0.28 |
| G1M | 0.045 ± 0.28 |
| G1Q | -0.047 ± 0.2 |
| G1R | 0.091 ± 0.13 |
| G1S | -0.135 ± 0.14 |
| G1T | -0.156 ± 0.26 |
| R3A | -0.268 ± 0.045 |
| R3C | -0.206 ± 0.055 |
| R3D | -0.499 ± 0.26 |
| R3E | -0.004 ± 0.075 |
| R3F | -0.058 ± 0.096 |
| R3G | -0.176 ± 0.031 |
| R3H | -0.098 ± 0.08 |
| R3K | -0.083 ± 0.071 |
| R3L | -0.182 ± 0.041 |
| R3M | -0.158 ± 0.062 |
| R3N | -0.373 ± 0.31 |
| R3P | -0.517 ± 0.068 |
| R3Q | -0.05 ± 0.048 |
| R3S | -0.214 ± 0.038 |
| R3V | -0.262 ± 0.044 |
| R3W | -0.081 ± 0.047 |
